This note sets out measurements from US11712410 (K18, dated 2023).

One may read the koff as the rate constant with which the complex falls apart. Low values mean slow dissociation, high ones fast dissociation. For orientation: kon means a measure of how fast the partners come together. A higher kon goes with fast association. Usually Kd stands for the concentration at which binding is half-saturated.

No end group written: not given here.

The target in assay [1] is T1, Hair Keratin KRTHB1 Basic (UniProt Q14533 304-505, limits assumed).
T1 construct: The keratin was printed onto a bare gold SPRi chip; also called natural hair keratin
T1 sequence (looked up): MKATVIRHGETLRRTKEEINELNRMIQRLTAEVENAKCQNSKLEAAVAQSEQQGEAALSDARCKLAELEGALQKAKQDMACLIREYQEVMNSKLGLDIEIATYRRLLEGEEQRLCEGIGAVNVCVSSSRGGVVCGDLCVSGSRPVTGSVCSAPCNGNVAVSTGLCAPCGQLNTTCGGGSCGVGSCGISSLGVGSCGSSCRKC
Kind of assay: SPRi (PlexArray HT), keratin printed on the gold chip, peptide injected; kinetic fit with BIAevaluation 4.1; five curves labelled 5.68 to 91.2 nM. How it is done:
(§1) Various concentrations of Keratin dissolved in water were manually printed onto the bare gold coated (thickness 47 nm) PlexArray Nanocapture Sensor Chip (Plexera Bioscience, Seattle, Wash., US) at 40% humidity. Each concentration was printed in replicate, and each spot contained 0.2 uL of […] solution. The chip was incubated in 80% humidity at 4° C. for overnight, and rinsed with 10×PBST for 10 min, 1×PBST for 10 min, and deionized water twice for 10 min. The chip was then blocked with 5% (w/v) non-fat milk in water overnight, and washed with 10×PBST for 10 min, 1×PBST for 10 min, and deionized water twice for 10 min before being dried under a stream of nitrogen prior to use. SPRi measurements were performed with PlexAray HT (Plexera Bioscience, Seattle, Wash., US). Collimated light (660 nm) passes through the coupling prism, reflects off the SPR-active gold surface, and is received the CCD camera. Buffers and samples were injected by a non-pulsatile piston pump into the 30 uL flowcell that was mounted on the coupling prim. Each measurement cycle contained four steps: washing with PBST running buffer at a constant rate of 2 uL/s to obtain a stable baseline, sample injection at 5 uL/s for binding, surface washing with PBST at 2 uL/s for 300 s, and regeneration with 0.5% (v/v) H3PO4 at 2 uL/s for 300 s. All the measurements were performed at 4° C. The signal changes after binding and washing (in AU) are recorded as the assay value. Selected protein-grafted regions in the SPR images were analyzed, and the average reflectivity variations of the chosen areas were plotted as a function of time. Real-time binding signals were recorded and analyzed by Data Analysis Module (DAM, Plexera Bioscience, Seattle, Wash., US). Kinetic analysis was performed using BIAevaluation 4.1 software (Biacore, Inc.).

For assay [2], the target named is T1, Hair Keratin KRTHB1 Basic. Kind of assay: SPRi (PlexArray HT), keratin printed on gold chip, peptide injected, 4 C. How it is done:
as §1

Assay [3] concerns the target T1, Hair Keratin KRTHB1 Basic. Kind of assay: SPRi (PlexArray HT), rank among the three peptides tested on keratin. The protocol:
as §1

B1: Aquis Pep1 (peptide)
peptide: FCGFPSCSTSG
notes: also called Aquis peptide 1; Peptide Aquis 1
In assay [1], B1 yielded a koff of 0.000478 s⁻¹ and a kon of 1310 M⁻¹ s⁻¹. Moreover, in assay [2], the Kd came to 365 nM. For the same molecule, the “Affinity Ranking” value in assay [3] was 1.

B2: Aquis Pep 2 (peptide)
peptide: CTPPSCCQLHHA
notes: also called Aquis peptide 2; Peptide Aquis 2
B2: in assay [1], the dissociation rate constant (koff) stood at 0.0206 s⁻¹ and the kon worked out at 8240 M⁻¹ s⁻¹. Besides, the affinity in assay [2], expressed as Kd, was 2500 nM. For the same molecule, the “Affinity Ranking” value in assay [3] is 3.

B3: KP (peptide)
peptide: GGVCGPSPPCITT
modifications: not fully specified; cysteine pairing not given here
notes: Control peptide developed by Khairpep; also called KP peptide; third peptide
In assay [1], B3 gave a koff of 0.00692 s⁻¹ and a kon of 8500 M⁻¹ s⁻¹. Besides, in assay [2], binding was put at a Kd of 814 nM. Moreover, the “Affinity Ranking” value in assay [3] was 2.
